Positions count from the first letter of the chain named.
B1: ISOP121BR5P1B7 (designed binder, not shown: small tags and cut ends)
chain: LPAPKNLVVSRITEDSARLSWKWEEGFFDSFLIQYQESEKVGEAIVLTVPGSERSYDLTGLKPGTEYTVSIYGVYQRHASAFVSNPLSAIFTT
notes: FN3 domain; E. coli lysate in the ELISA
B2: ISOP121AR5P1D11 (designed binder, not shown: small tags and cut ends)
chain: LPAPKNLVVSRVTEDSARLSWEWLEHFDSFLIQYQESEKVGEAIVLTVPGSERSYDLTGLKPGTEYTVSIYGVYQRKVEFHSNPLSAIFTT
notes: as for B1
B3: ISOP194AR9P1E9 (designed binder, not shown: small tags and cut ends)
chain: B2 chain with E79N, H81Y
notes: as for B1
B4: ISOP194AR9P1F2 (designed binder, not shown: small tags and cut ends)
chain: B2 chain with V9I, Q75N, E79N, H81Y
notes: as for B1
B5: ISOP194AR9P1C10 (designed binder, not shown: small tags and cut ends)
chain: B2 chain with L19P, Q75N, E79N, H81Y
notes: as for B1
B6: ISOP194AR9P1E8 (designed binder, not shown: small tags and cut ends)
chain: B2 chain with V48I
notes: as for B1
B7: ISOP194AR9P1H9 (designed binder, not shown: small tags and cut ends)
chain: B2 chain with L31Q
notes: as for B1
B8: ISOP194AR9P1C3 (designed binder, not shown: small tags and cut ends)
chain: B2 chain with E14Q, D15N, Q33H
notes: as for B1
B9: ISOP194AR9P1C5 (designed binder, not shown: small tags and cut ends)
chain: LPAPKNLVVSRVTEDSARLSWLRDFNGRAFFDSFLIQYQESEKVGEAIVLTVPGSERSYDPTGLKPGTEYTVSIYGVFITWIHVRSNPLSAIFTT
notes: as for B1
B10: ISOP121AR5P1G6 (designed binder, not shown: small tags and cut ends)
chain: LPAPKNLVVSRVTEDSARLSWHATFGDPFDSFLIQYQESEKVGEAIVLTVPGSERSYDLTGLKPGTEYTVSIYGVGRHYTVYDSNPLSAIFTT
notes: as for B1
B11: ISOP121HR5P1G9 (designed binder, not shown: small tags and cut ends)
chain: LPAPKNLVVSRVTEDSARLSWTAPDAAFDSFPINYGERATKGEAINLYVPGSERSYDLTGLKPGTEYWVLIGGVKGGLKSSPLWAWFTT
notes: as for B1
B12: ISOP194GR9P1C11 (designed binder, not shown: small tags and cut ends)
chain: B11 chain with P32W, N34F, G36N, A39W, T40Q, K41N, N46R, Y48T
notes: as for B1
B13: ISOP121GR5P1B4 (designed binder, not shown: small tags and cut ends)
chain: B11 chain with V8I
notes: as for B1
B14: ISOP194BR9P1F7 (designed binder, not shown: small tags and cut ends)
chain: LPAPKNLVVSRVTEDSARLSWFNADEEYFDSFLIQYQESEKVGEAIVLTVPGSERSYDLTGLKPGTEYTVSIYGVYTRGRYEWRESNPLSAIFTT
notes: as for B1
B15: ISOP194AR9P1D8 (designed binder, not shown: small tags and cut ends)
chain: LPAPKNLVVSRVTEDSARLSWDTWNDFFDSFLIQYQESEKVGEAIVLTVPGSERSYDLTGLKPGTEYTVSIYGVYQRKVIWLSNPLSAIFTT
notes: as for B1
B16: ISOP194ER9P1A11 (designed binder, not shown: small tags and cut ends)
chain: LPAPKNLVVSRVTEDSARLSWTAPDAAFDSFRIAYYETMVSGEAIVLTVPGSERSYDLTGLKPGTEYAVIIKGVKGGKPSWPLSAIFTT
notes: as for B1
B17: ISOP194ER9P1H9 (designed binder, not shown: small tags and cut ends)
chain: B16 chain with L61P
notes: as for B1
B18: ISOP194ER9P1A3 (designed binder, not shown: small tags and cut ends)
chain: B16 chain with K78M, P79V
notes: as for B1
B19: ISOP194ER9P1G3 (designed binder, not shown: small tags and cut ends)
chain: B16 chain with V8I
notes: as for B1
B20: ISOP194AR9P1H3 (designed binder, not shown: small tags and cut ends)
chain: LPAPKNLVVSRVTEDSARLSWNASWISHNFFDSFLIQYQESEKVGEAIVLTVPGSERSYDLTGLKPGTEYTVSIYGVYERKTAFYSNPLSAIFTT
notes: as for B1
B21: ISOP194GR9P1F6 (designed binder, not shown: small tags and cut ends)
chain: LPAPKNLVVSRVTEDSARLSWTAPDAAFDSFWIDYWERLSEGEAIALRVPGSERSYDLTGLKPGTEYYVWIVGVKGGKFSQPLRAWFTT
notes: as for B1
B22: ISOP121BR5P1A7 (designed binder, not shown: small tags and cut ends)
chain: LPAPKNLVVSRVTEDSARLSWTTAFHNEYFDSFLIQYQESEKVGEAIVLTVPGSERSYDLTGLKPGTEYTVSIYGVYSRPKAEFTSNPLSAIFTT
notes: as for B1
B23: ISOP194BR9P1G9 (designed binder, not shown: small tags and cut ends)
chain: B22 chain with S78I, P80V, K81Q, A82V, E83L, F84W, T85F
notes: as for B1
B24: ISOP194BR9P1H4 (designed binder, not shown: small tags and cut ends)
chain: B22 chain with R18C
notes: as for B1
B25: ISOP194BR9P1E4 (designed binder, not shown: small tags and cut ends)
chain: B22 chain with S78Q, P80G, K81Y, A82H, E83N, F84W, T85F
notes: as for B1
B26: ISOP194HR9P1B10 (designed binder, not shown: small tags and cut ends)
chain: LPAPKNLVVSRVTEDSARLSWTAPDAAFDSFPIRYYERANGEAIVLTVPGSERSYDLTGLKPGTEYIVWIYGVKGGGRSGPLSAIFTT
notes: as for B1
B27: ISOP194BR9P1D1 (designed binder, not shown: small tags and cut ends)
chain: LPAPKNLVVSRVTEDSARLSWEHSLLNDQWFDSFLIQYQESEKVGEAIVLTVPGSERSYDLTGLKPGTEYTVSIYGVYQRGRALWYSNPLSAIFTT
notes: as for B1

Molecular target: unrelated Fc-fused recombinant protein
Assay: ELISA, lysate on plate-bound antigen

Binder | ELISA Fc Control (RSU)
B1 | 640 RSU
B2 | 640 RSU
B3 | 5520 RSU
B4 | 1920 RSU
B5 | 38200 RSU
B6 | 6960 RSU
B7 | 21300 RSU
B8 | 56400 RSU
B9 | 3440 RSU
B10 | 1200 RSU
B11 | 880 RSU
B12 | 1040 RSU
B13 | 800 RSU
B14 | 1920 RSU
B15 | 12000 RSU
B16 | 800 RSU
B17 | 720 RSU
B18 | 560 RSU
B19 | 560 RSU
B20 | 9200 RSU
B21 | 400 RSU
B22 | 800 RSU
B23 | 640 RSU
B24 | 3040 RSU
B25 | 640 RSU
B26 | 560 RSU
B27 | 1360 RSU

Molecular target: human serum albumin (human) (UniProt P02768)
Sequence (P02768 25-609 limits assumed): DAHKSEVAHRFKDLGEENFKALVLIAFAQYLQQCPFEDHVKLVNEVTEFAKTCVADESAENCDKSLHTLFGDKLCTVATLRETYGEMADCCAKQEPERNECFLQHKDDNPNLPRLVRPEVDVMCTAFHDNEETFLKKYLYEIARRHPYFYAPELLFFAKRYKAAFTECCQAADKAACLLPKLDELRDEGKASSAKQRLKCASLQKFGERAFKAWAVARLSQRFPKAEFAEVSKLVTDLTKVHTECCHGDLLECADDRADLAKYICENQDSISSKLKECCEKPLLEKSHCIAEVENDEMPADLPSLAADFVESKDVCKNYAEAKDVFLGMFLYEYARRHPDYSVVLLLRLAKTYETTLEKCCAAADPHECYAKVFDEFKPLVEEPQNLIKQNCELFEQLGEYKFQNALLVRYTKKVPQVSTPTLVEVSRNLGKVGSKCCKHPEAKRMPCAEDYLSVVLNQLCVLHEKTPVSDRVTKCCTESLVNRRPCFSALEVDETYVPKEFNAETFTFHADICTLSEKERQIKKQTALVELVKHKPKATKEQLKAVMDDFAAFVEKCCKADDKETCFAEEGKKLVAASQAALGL
Assay: ELISA, lysate on plate-bound antigen

Binder | ELISA HSA (RSU)
B1 | 480 RSU
B2 | 1040 RSU
B3 | 1600 RSU
B4 | 7520 RSU
B5 | 15000 RSU
B6 | 67700 RSU
B7 | 11400 RSU
B8 | 5920 RSU
B9 | 1040 RSU
B10 | 880 RSU
B11 | 1760 RSU
B12 | 1440 RSU
B13 | 560 RSU
B14 | 1760 RSU
B15 | 6560 RSU
B16 | 880 RSU
B17 | 880 RSU
B18 | 800 RSU
B19 | 720 RSU
B20 | 4880 RSU
B21 | 1200 RSU
B22 | 1120 RSU
B23 | 960 RSU
B24 | 3840 RSU
B25 | 1440 RSU
B26 | 1840 RSU
B27 | 1280 RSU

Molecular target: T1, recombinant biotinylated PD-L1 (rhPD-L1/Fc Chimera, R&D Systems 156-B7) (human, UniProt Q9NZQ7 19-238, biotinylated (sites not given))
T1 construct: Bought Fc chimera; also called human PD-L1
T1 sequence (Q9NZQ7 19-238, change not shown): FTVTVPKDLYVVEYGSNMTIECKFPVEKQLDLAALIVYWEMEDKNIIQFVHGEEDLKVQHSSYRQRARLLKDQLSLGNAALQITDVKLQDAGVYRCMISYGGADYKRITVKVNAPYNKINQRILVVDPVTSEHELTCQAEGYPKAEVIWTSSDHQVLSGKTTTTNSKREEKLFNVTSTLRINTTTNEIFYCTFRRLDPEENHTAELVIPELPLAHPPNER
Assay: ELISA, lysate on plate-bound antigen
Procedure: Streptavidin-coated Maxisorp plates (Nunc catalog 436110) were blocked for 1 h in Starting Block T20 (Pierce) and then coated with biotinylated PD-L1 (using same antigen as in panning) or negative controls (an unrelated Fc-fused recombinant protein and human serum albumin) for 1 h. Plates were rinsed with TBST and diluted lysate was applied to plates for 1 h. Following additional rinses, wells were treated with HRP-conjugated anti-FN3 domain antibody (PAB25) for 1 h and then assayed with POD (Roche catalog 11582950001).

Binder | ELISA PD-L1 Fc (RSU)
B1 | 11400 RSU
B2 | 393000 RSU
B3 | 1.97e+07 RSU
B4 | 1.63e+07 RSU
B5 | 1.39e+07 RSU
B6 | 3.4e+06 RSU
B7 | 2.59e+06 RSU
B8 | 3.55e+06 RSU
B9 | 4.37e+06 RSU
B10 | 17000 RSU
B11 | 17800 RSU
B12 | 164000 RSU
B13 | 16200 RSU
B14 | 1.52e+07 RSU
B15 | 923000 RSU
B16 | 4.35e+06 RSU
B17 | 3.04e+06 RSU
B18 | 2.36e+06 RSU
B19 | 4.29e+06 RSU
B20 | 1.77e+07 RSU
B21 | 319000 RSU
B22 | 389000 RSU
B23 | 1.44e+07 RSU
B24 | 4.06e+06 RSU
B25 | 9.79e+06 RSU
B26 | 385000 RSU
B27 | 2.15e+06 RSU
